Tested on: MS2 coat protein
Experiment: apparent KD of MS2 coat protein; designed switch direction (-1 OFF switch, 1 ON switch): -1; higher = weaker reporter binding
Procedure, shortened: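 Designed RNA switches were transcribed on Illumina chips by stalled E. coli RNA polymerase and titrated with SNAP-549-labelled MS2 coat protein from 0.7 or 1.5 nM, doubling to 3 µM. Step length ran from 0.8–1.5 h at the lowest concentration to 10–20 min at the highest. The apparent KD is the median over clusters for each design, from curve-fitted normalised cluster fluorescence.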

[1] = Eterna round: R95, input ligand: microRNA oligo, concentration not stated
[2] = Eterna round: R95, input ligand: FMN 200 uM
[3] = Eterna round: R95, input ligand: none
[4] = input ligand: microRNA oligo, concentration not stated

Sequence | apparent KD of MS2 coat protein [1] | apparent KD of MS2 coat protein (input ligand: FMN 200 uM) | apparent KD of MS2 coat protein (input ligand: none) | also measured
GUCGAGUGAGGAUAUGGUGAGUAGUGCCUGAGCGCUGCUCACCAGAAGGCACAUGAGGAUCACCCAUGUAUAGC [JL-ex4-2.05 denovo] (puzzle: Exclusion 4) | 15.5 nM |  |  | 
GAAAUGGUAGGAUAUACGAAAAAAAAGGGUAGAAAAAAAACACAUGAGGAUCACCCAUGUAGAAGGACCAAAAG [salish99_ex2_r3_088] (puzzle: Exclusion 2) | 31.9 nM |  |  | apparent KD of MS2 coat protein [2]: 71.4 nM; apparent KD of MS2 coat protein [3]: 28.4 nM
GAAAAGGUAGGAUAUACGAAAAAAAAGGGUAGAAAAAAAACACAUGAGGAUCACCCAUGUAGAAGGACCAAAAC [salish99_ex2_r3_052] (puzzle: Exclusion 2) | 35.3 nM |  |  | apparent KD of MS2 coat protein [2]: 94.7 nM; apparent KD of MS2 coat protein [3]: 27.8 nM
AAAUAAAGCCUAGGAUAUCCGGACGAUAACCCAGGAGAAGGAGGAUGUCGAAGAAGACAUGAGGAUCACCCAUGUGCGUCCUCU [Ancegege] (Eterna round: R96, puzzle: Exclusion NG 1) |  | 10.3 nM | 15.4 nM | apparent KD of MS2 coat protein [4]: 10.6 nM
UGAUCUAGCGGAGGAUAUACAUGAGGAUCACCCAUGUAGAUGAGUGUACCGUAGUGCACUCUUGUGUAGAAGGCCGCUAGAUCU [JL ENG2 3.56] (Eterna round: R96, puzzle: Exclusion NG 2) |  | 24.8 nM | 16.7 nM | apparent KD of MS2 coat protein [4]: 12.6 nM
AAAUAUAAGCAAAGAUCCUACAUGAGGAUCACCCAUGUGCUCGUCUUAUAAAGUACUAUCACGAAAGUGAUAGUACA [Sensor 3, v1 - 19] (puzzle: Sensor v3, turn-off variant 1) | 49 nM |  |  | apparent KD of MS2 coat protein [2]: 117 nM; apparent KD of MS2 coat protein [3]: 215 nM
CCUAAACAUGAGGAUCACCCAUGUGAGGAUAUGAUGCGAAUAAAGAAAGAAGAAAGCAUCAGAAGGCACAUAGG (Eterna round: R96, puzzle: Exclusion 1) |  |  |  | apparent KD of MS2 coat protein [4]: 131 nM
UGUUGUUACGUAGGAUAUCCACCAACAGGUGGAAGGAUAUGGAAACAGAAGGUUCGCCAACAGGCGGAGAAGGACGUGUUAACU [pwkr exNG2 2xF7 2xFMN.23] (Eterna round: R96, puzzle: Exclusion NG 2) |  | 2.79 nM | 288 nM | apparent KD of MS2 coat protein [4]: 3780 nM
GAAUAACAAGUGAGGAUAUGGAGUUGGGAGCCAGUUCAGAAGGCACAUGAGGAUCACCCAUGUGAACCGCAGCU [Eternabot (L2) Solution 45] (Eterna round: R97, puzzle: Brourd's mod of Exclusion 4) |  | 16.9 nM | 14.5 nM | 
UUGUACAGAGGAUAUACAUGAGGAUCACCCAUGUGUUUCAGCUAGGAGACUAGCGAAAGUAGAAGGCUGUACUC [salish99_ex3_r4_015] (Eterna round: R97, puzzle: Exclusion 3) |  | 23.9 nM | 11.1 nM | 
ACCAUGUAAGGAUAUCUCGUACAAAGACGCAACUCGUCCAGAGAGAAGGUACAUGAGGAUCACCCAUGUAGACA [Eternabot (Original) Solution 39] (Eterna round: R97, puzzle: Exclusion 4) |  | 152 nM | 33.5 nM | 
UUUUAGGCAGGAUAUACAUUUUUUUUAUUAUCCUCAUUAUUACAUGAGGAUCACCCAUGUAGAAGGGCCAUUUU [My Design] (puzzle: Exclusion 2) | 38.5 nM |  |  | 
AUGAUACAUGAGGAUCACCCAUGUGAGGAUAUGAAGUUAUAAUACAUACUAUACAUCUUCAGAAGGCAUAUGUG [E1 S1 6/16] (Eterna round: R97, puzzle: Exclusion 1) |  | 229 nM | 109 nM | 
GAAAAGGUAGAGGAUAUUUCAGAUCAAAGCUGCAAAGAAGGCUGCACAUGAGGAUCACCCAUGUGGUCUUCAAA [Mod of Quesina 9 - Jieux - Exclusion 6] (Eterna round: R97, puzzle: Exclusion 6) |  | 121 nM | 19.7 nM | 
UUUAAUUUUUUUUUUUUACAAGCUUUUUGCUCGUCUUAUACAUGAGGAUCACCCAUGUGGGUGGAGAGUAAAUUAUC [JMF 60] (puzzle: Sensor v3, turn-off variant 2) | 47.1 nM |  |  | apparent KD of MS2 coat protein [2]: 45.4 nM; apparent KD of MS2 coat protein [3]: 56 nM
CAGUACAGAGGAUAUACAUGAGGAUCACCCAUGUGUUCCAGCUAGGAAACUAGCGAAUGUAGAAGGCUGUACUG [jl-ex3-4.23 salish99 mod] (Eterna round: R97, puzzle: Exclusion 3) |  | 166 nM | 273 nM | 

Sequence | apparent KD of MS2 coat protein [1] | apparent KD of MS2 coat protein (input ligand: FMN 200 uM) | apparent KD of MS2 coat protein (input ligand: none) | also measured
UUACUCCUCGCUUGGUCACACAUGAGGAUCACCCAUGUGGGAUGCCAUGGCGUCUCAUCAAGCUUCUUUUGCUCGUG [Eternabot (Original) Solution 26] (Eterna round: R97, puzzle: Sensor, turn-off variant 1) |  | 20.9 nM | 23.8 nM | 
GGGUAGUGAGGAUAUCGUUGUUAGGAGGAGUAGGUAGGAGGCGAGAAGGCACAUGAGGAUCACCCAUGUAUGAA [JR_Exclu4_Sub066] (puzzle: Exclusion 4) | 23.5 nM |  |  | 
UUCCGACAUGAGGAUCACCCAUGUAAGGAUAUGCACUAGAGGGCAAACCCUCUUAACGGCAGAAGGUGCAGGGA [Qudile] (Eterna round: R97, puzzle: Exclusion 1) |  | 115 nM | 15 nM | 
GGGCCCGGAGGAUAUACAUGAGGAUCACCCAUGUAGGGCCCGGGUAUUCCCGGGCCCUGUAGAAGGUUGGGCCC [-44, -41.2 kcal, A 19%, 0,5c] (Eterna round: R97, puzzle: Exclusion 3) |  | 17.8 nM | 15.8 nM | 
UUUUAACAUGAGGAUCACCCAUGUGAGGAUAUCGAAAUUUAUAUUAAUAUUAAUAUUACGAGAAGGCACAUUUU [JMF 26] (puzzle: Exclusion 1) | 77 nM |  |  | 
AAAAAGCGAGGAUAUGCGGGCGGGUGCGGCCAGCCGAUGUGACAUGAGGAUCACCCAUGUAGAAGGCGCAAAAA [Excls2-VII] (puzzle: Exclusion 2) | 12.3 nM |  |  | 
GGCAUGUGAGGAUAUGUACCUGAGUGCUUUGCGCUCAGGAAACAGAAGGCACAUGAGGAUCACCCAUGUGAAAU [jl-ex4-4.48 ViennaUCT mod] (Eterna round: R97, puzzle: Exclusion 4) |  | 96.8 nM | 251 nM | 
UGAUCAAAUGUCAGGAUAUGCUGUUGUAAUCAACAGCAGAAGGGACAUGAGGAUCACCCAUGUCUUGUCGAUUU [Magic-03] (puzzle: Brourd's mod of Exclusion 4) | 13.8 nM |  |  | 
AUGUACCGGUGAGGAUAUUUUUAAUAGAGCUUUAUGAUAUACAUGAGGAUCACCCAUGUUACGUUAAAGAAGGCAUCGGAUUAA [Mat - Exclusion NG 2 - Mod of JL - D96] (Eterna round: R96, puzzle: Exclusion NG 2) |  |  |  | apparent KD of MS2 coat protein [4]: 14 nM
AAGUAGUGUGUGAGGAUAUUGGUGGAAUGACACAUUAAGAAGGUACAUGAGGAUCACCCAUGUGGGUAAACACG [Brourd's EX4 #23] (Eterna round: R97, puzzle: Brourd's mod of Exclusion 4) |  | 137 nM | 146 nM | 
AGCGCCAUCGUGAGAUGGCGUAUUACAUGAGGAUCACCCAUGUAGGAUAUCGAUUGCUUUGCAGUCGAGAAGGACAUGUCCUAG [JL ENG3 3.80 Mod F] (Eterna round: R96, puzzle: Exclusion NG 3) |  | 38.3 nM | 27.9 nM | apparent KD of MS2 coat protein [4]: 23.4 nM
UCUCGCGGGCAAGGAUAUCCUACGCUGUUCUGGCCCGUGUAUGUUACAUGAGGAUCACCCAUGUGGGAGAAGGUGCACCAGGGC [Design 40] (Eterna round: R96, puzzle: Exclusion NG 2) |  | 83.3 nM | 76 nM | apparent KD of MS2 coat protein [4]: 39.3 nM
AGAAAUGCCCAUGGCCGCAAGCUUCUUGCUUGUCUUACCACAUGAGGAUCACCCAUGUGACAUGGGCUCCUUAUAAU [Xeceenqu] (puzzle: Sensor v3, turn-off variant 2) | 9.59 nM |  |  | apparent KD of MS2 coat protein [2]: 12.5 nM; apparent KD of MS2 coat protein [3]: 11.3 nM
CAUGUCUGAGGAUAUCGUUUUUUGUACAUGAGGAUCACCCAUGUCCUAUUUUUUAUAUUACGAGAAGGCAGUGGAU [JR_E5_Sub091] (puzzle: Exclusion 5) | 34.9 nM |  |  | 
CGUACUAACACGAAAGUGUUAGUACAAUAAGCUUGUGAAACAUGAGGAUCACCCAUGUCCUCAUAAGCUCGUCUUAU [salish99_TOv2_r3_007] (Eterna round: R96, puzzle: Sensor v3, turn-off variant 2) |  | 15.6 nM | 17.9 nM | apparent KD of MS2 coat protein [4]: 486 nM
CUAAAUCAUGUAGGAUAUGCGUGGCGAAGCUAUGCAGAAGGACAUGAGGAUCACCCAUGUCUUUCCGUCUGAGUACAGACGGGA [Mat - Exclusion NG 1 - Mod of JL - D45] (Eterna round: R96, puzzle: Exclusion NG 1) |  | 155 nM | 18 nM | apparent KD of MS2 coat protein [4]: 16.4 nM

From the supplement of paper PMC9170038
